Molecular target: Lys119 (UniProt position 119, IPVLRKDFVVQ)
Assay: kinetics
Conditions: 25 °C; 100 mM NaCl in MTEN buffer (said to have minimal change in ionic strength with pH); Steady-state turnover with CdRP (60 µM) above KM; enzyme 0.25-60 µM depending on variant

Substance	pKa
MtIGPS Glu219Gln (Mycobacterium tuberculosis; E219Q)	9.9 ± 0.1
MtIGPS Glu219Asp (Mycobacterium tuberculosis; E219D)	7.6 ± 0.2
MtIGPS Glu57Asp (Mycobacterium tuberculosis; E57D)	7.7 ± 0.1
Indole-3-glycerol phosphate synthase (MtIGPS), wild type (Mycobacterium tuberculosis)	9.0 ± 0.1
MtIGPS Glu219Asn (Mycobacterium tuberculosis; E219N)	10.0 ± 0.2

Source: publication PMC10591298
